Entries after “also recorded” stand apart in the source; their conditions may differ.
What was measured:
[1] = molecular target: T1, chip-immobilized secPHEX (Homo sapiens, UniProt P78562); assay: Surface plasmon resonance, secPHEX analyte on immobilized secPHEX; type: binding; settings: 2 uM secPHEX
T1 construct: to generate a soluble, secreted form of PHEX; made in house; gift of Crine and Boileau, University of Montreal
T1 sequence (P78562 46-749 limits assumed): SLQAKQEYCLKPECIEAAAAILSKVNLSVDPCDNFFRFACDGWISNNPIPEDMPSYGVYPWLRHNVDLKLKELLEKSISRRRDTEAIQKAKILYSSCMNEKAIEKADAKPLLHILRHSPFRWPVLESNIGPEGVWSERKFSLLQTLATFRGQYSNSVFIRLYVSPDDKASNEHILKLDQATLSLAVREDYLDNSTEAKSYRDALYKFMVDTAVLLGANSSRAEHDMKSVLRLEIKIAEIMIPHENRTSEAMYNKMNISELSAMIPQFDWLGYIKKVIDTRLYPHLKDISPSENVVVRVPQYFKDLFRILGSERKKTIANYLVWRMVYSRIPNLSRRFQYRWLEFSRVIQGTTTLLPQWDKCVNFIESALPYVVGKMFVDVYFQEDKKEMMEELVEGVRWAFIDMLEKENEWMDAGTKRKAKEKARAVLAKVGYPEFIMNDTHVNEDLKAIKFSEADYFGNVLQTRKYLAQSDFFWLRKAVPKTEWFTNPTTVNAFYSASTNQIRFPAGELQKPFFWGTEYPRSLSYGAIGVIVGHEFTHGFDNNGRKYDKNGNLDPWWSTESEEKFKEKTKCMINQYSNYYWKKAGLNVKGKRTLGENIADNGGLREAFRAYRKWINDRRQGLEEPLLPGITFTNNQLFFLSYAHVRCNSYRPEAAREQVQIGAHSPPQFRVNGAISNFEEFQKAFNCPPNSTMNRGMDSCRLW
Description: (§1) Surface Plasmon Resonance (SPR). A Biacore 3000 SPR instrument (Biacore, Piscataway, N.J.) in conjunction with CM5 research grade chips were used to conduct the Surface Plasmon Resonance (SPR) experiments, as previously described (Morgan, et al., A conserved clathrin assembly motif essential for synaptic vesicle endocytosis, J Neurosci 20(23):8667-8676, 2000; Morgan, et al., Uncoating of clathrin-coated vesicles in presynaptic terminals: Roles for Hsc70 and auxilin, Neuron 32(2):289-300, 200 1; Morgan, et al., Eps15 homology domain-NPF motif interactions regulate clathrin coat assembly during synaptic vesicle recycling, J Biol Chem 278(35):33583-33592, 2003). The experiments were performed at 25° C. using Biacore (Piscataway, N.J.) buffer (10 mM HEPES pH 7.4, 150 mM NaCl, 0.005% surfactant P20) supplemented with 2 mM ZnCl2 (HBS-P-Zn) or without ZnCl2 (HBS-P) as indicated. Injected samples also contained 2 mg/mL carboxymethyl-dextran to reduce non-specific association with the dextran matrix of the chip and a flow rate of 5 μL/min was used. […] The response unit or RU is a measure of surface charge density-oscillation and surface-plasmon-positron generation as detected by changes in incident refractive-index monitored by the Biacore optical unit. […]

[2] = molecular target: T2, chip-immobilized MEPE (Homo sapiens, UniProt Q9NQ76); assay: Surface plasmon resonance, secPHEX analyte on chip-immobilized MEPE; type: binding
T2 construct: Purified protein contained N-terminal amino acid residues APTFQ confirming cleavage of predicted nascent-MEPE signal-peptide; made in house; host or cells: Spodoptera frugiperda (sf9) insect cells, baculovirus
T2 sequence (Q9NQ76 18-525): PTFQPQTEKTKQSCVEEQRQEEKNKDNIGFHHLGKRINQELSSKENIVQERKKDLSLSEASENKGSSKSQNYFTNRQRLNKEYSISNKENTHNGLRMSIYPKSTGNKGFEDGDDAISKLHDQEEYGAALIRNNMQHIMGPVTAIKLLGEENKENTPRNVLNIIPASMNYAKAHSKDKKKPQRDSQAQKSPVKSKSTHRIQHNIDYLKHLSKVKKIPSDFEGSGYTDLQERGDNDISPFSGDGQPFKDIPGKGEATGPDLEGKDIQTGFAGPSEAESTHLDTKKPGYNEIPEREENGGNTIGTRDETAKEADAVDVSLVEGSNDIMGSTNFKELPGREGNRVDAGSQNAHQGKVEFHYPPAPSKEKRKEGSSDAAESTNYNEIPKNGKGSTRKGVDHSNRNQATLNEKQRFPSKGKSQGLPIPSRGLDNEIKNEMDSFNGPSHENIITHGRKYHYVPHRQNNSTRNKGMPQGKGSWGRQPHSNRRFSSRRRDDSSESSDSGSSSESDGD
Description: (§2) Surface Plasmon Resonance (SPR). A Biacore 3000 SPR instrument (Biacore, Piscataway, N.J.) in conjunction with CM5 research grade chips were used to conduct the Surface Plasmon Resonance (SPR) experiments, as previously described (Morgan, et al., A conserved clathrin assembly motif essential for synaptic vesicle endocytosis, J Neurosci 20(23):8667-8676, 2000; Morgan, et al., Uncoating of clathrin-coated vesicles in presynaptic terminals: Roles for Hsc70 and auxilin, Neuron 32(2):289-300, 200 1; Morgan, et al., Eps15 homology domain-NPF motif interactions regulate clathrin coat assembly during synaptic vesicle recycling, J Biol Chem 278(35):33583-33592, 2003). The experiments were performed at 25° C. using Biacore (Piscataway, N.J.) buffer (10 mM HEPES pH 7.4, 150 mM NaCl, 0.005% surfactant P20) supplemented with 2 mM ZnCl2 (HBS-P-Zn) or without ZnCl2 (HBS-P) as indicated. Injected samples also contained 2 mg/mL carboxymethyl-dextran to reduce non-specific association with the dextran matrix of the chip and a flow rate of 5 μL/min was used. The surfaces of research grade CM5 chips were activated by a 6 min injection of a solution containing 0.2M N-ethyl-N9-(dimethylaminopropyl) carbodiimide and 0.05M N-hydroxy-succinimide. MEPE, PHEX and IgG were immobilized on the same chip (ligands) in different individual flow-cells. Each chip contains four separate flow-cells, one cell was left blank as a negative control. The experiments were repeated on two different chips with 3500 RU (response-units) and 6000 RU of immobilized proteins respectively. The response unit or RU is a measure of surface charge density-oscillation and surface-plasmon-positron generation as detected by changes in incident refractive-index monitored by the Biacore optical unit. Specifically, 1000 RU unit equals a change of approximately 1 ng/mm^2 in surface protein concentration on the chip surface. After immobilization, each surface was blocked by a 6 min injection of 1 M ethanolamine at pH 8.5. […]

[3] = molecular target: T3, full-length insect-expressed human-MEPE (Hu-MEPE) (human, UniProt Q9NQ76 18-525); assay: SPR (Biacore 3000), MEPE immobilized on CM5 at 3500 RU, secPHEX analyte, HBS-P-Zn (2 mM ZnCl2)
T3 construct: also called recombinant Hu-MEPE; Matrix Extracellular Phosphoglycoprotein
T3 sequence: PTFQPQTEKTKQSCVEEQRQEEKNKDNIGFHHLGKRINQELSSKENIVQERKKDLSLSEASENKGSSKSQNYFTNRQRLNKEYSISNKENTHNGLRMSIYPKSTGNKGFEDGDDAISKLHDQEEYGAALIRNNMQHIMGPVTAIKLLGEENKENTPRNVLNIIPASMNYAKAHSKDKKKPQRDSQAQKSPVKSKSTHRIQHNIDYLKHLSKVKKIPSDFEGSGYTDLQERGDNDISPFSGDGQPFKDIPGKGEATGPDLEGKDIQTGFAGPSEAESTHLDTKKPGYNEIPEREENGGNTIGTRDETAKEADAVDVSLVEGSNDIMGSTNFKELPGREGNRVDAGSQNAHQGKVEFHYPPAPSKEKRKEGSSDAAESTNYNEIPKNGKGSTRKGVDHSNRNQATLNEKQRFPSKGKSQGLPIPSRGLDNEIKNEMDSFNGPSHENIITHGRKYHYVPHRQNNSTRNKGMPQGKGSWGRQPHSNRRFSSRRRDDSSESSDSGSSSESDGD
Procedure: as §2, with “The” for “Surface Plasmon Resonance (SPR). A Biacore 3000 SPR instrument (Biacore, Piscataway, N.J.) in conjunction with CM5 research grade chips were used to conduct the Surface Plasmon Resonance (SPR) experiments, as previously described (Morgan, et al., A conserved clathrin assembly motif essential for synaptic vesicle endocytosis, J Neurosci 20(23):8667-8676, 2000; Morgan, et al., Uncoating of clathrin-coated vesicles in presynaptic terminals: Roles for Hsc70 and auxilin, Neuron 32(2):289-300, 200 1; Morgan, et al., Eps15 homology domain-NPF motif interactions regulate clathrin coat assembly during synaptic vesicle recycling, J Biol Chem 278(35):33583-33592, 2003). The”, “ZnCl₂” for “ZnCl2”, “ng/mm²” for “ng/mm^2”

[4] = system: IgG; assay: Surface plasmon resonance, secPHEX analyte on immobilized IgG; type: binding; settings: same chip
Description: as §1

binding of secPHEX to MEPE in buffer lacking ZnCl2 ([2]; HBS-P, secPHEX up to 10 uM): No interaction
binding of secPHEX to MEPE ([2]; HBS-P-Zn buffer, saturation at 10 uM secPHEX): dose dependent
Bmax of secPHEX binding to immobilized MEPE ([2]; MEPE 3500 RU): 680 RU
EC50 [3]: 553 nM
B1: mammalian expressed human recombinant secreted PHEX (secPHEX) (enzyme, UniProt P78562 46-749, looked up)
chain: SLQAKQEYCLKPECIEAAAAILSKVNLSVDPCDNFFRFACDGWISNNPIPEDMPSYGVYPWLRHNVDLKLKELLEKSISRRRDTEAIQKAKILYSSCMNEKAIEKADAKPLLHILRHSPFRWPVLESNIGPEGVWSERKFSLLQTLATFRGQYSNSVFIRLYVSPDDKASNEHILKLDQATLSLAVREDYLDNSTEAKSYRDALYKFMVDTAVLLGANSSRAEHDMKSVLRLEIKIAEIMIPHENRTSEAMYNKMNISELSAMIPQFDWLGYIKKVIDTRLYPHLKDISPSENVVVRVPQYFKDLFRILGSERKKTIANYLVWRMVYSRIPNLSRRFQYRWLEFSRVIQGTTTLLPQWDKCVNFIESALPYVVGKMFVDVYFQEDKKEMMEELVEGVRWAFIDMLEKENEWMDAGTKRKAKEKARAVLAKVGYPEFIMNDTHVNEDLKAIKFSEADYFGNVLQTRKYLAQSDFFWLRKAVPKTEWFTNPTTVNAFYSASTNQIRFPAGELQKPFFWGTEYPRSLSYGAIGVIVGHEFTHGFDNNGRKYDKNGNLDPWWSTESEEKFKEKTKCMINQYSNYYWKKAGLNVKGKRTLGENIADNGGLREAFRAYRKWINDRRQGLEEPLLPGITFTNNQLFFLSYAHVRCNSYRPEAAREQVQIGAHSPPQFRVNGAISNFEEFQKAFNCPPNSTMNRGMDSCRLW
notes: Gift from Crine and Boileau; Used as SPR analyte and also immobilized as ligand; also called soluble mammalian expressed PHEX
interaction of secPHEX analyte with chip-immobilized secPHEX [1]: very low-level barely-detectable autologous-interaction
interaction of secPHEX with control IgG [4]: no significant signals; also recorded: No interaction
